Laboratory results: the supplement of paper PMC9170038

Tests used:
[1] = test system: MS2 coat protein; experiment: apparent KD of MS2 coat protein; higher = weaker reporter binding; conditions: Eterna round: R107
Protocol: (§1)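 RNA-MaP round R107: designed RNA switches with theophylline, tryptophan, arginine or FMN aptamers are transcribed on-chip within common flanks. They are titrated with SNAP-549-labelled MS2 coat protein in RNA-MaP buffer (100 mM Tris pH 7.5, 80 mM KCl, 4 mM MgCl2), without ligand or with the indicated ligand. Median apparent KD per design.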

[2] = test system: K4 kissing-loop RNA reporter; experiment: apparent KD of K4 kissing-loop reporter; higher = weaker reporter binding; conditions: Eterna round: R107;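 further: bound reporter read as fluorescence of individual clusters on recovered sequencing chips by microscopy, with normalized cluster intensities fitted with a binding model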
Protocol: as §1, with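 “a labelled K4 kissing-loop RNA reporter” for “SNAP-549-labelled MS2 coat protein”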

[3] = input ligand: theophylline 20 uM
[4] = input ligand: theophylline 2 mM
[5] = input ligand: tryptophan 2.4 mM

Sequence	apparent KD of MS2 coat protein ([1]; input ligand: arginine 13.2 mM) [nM]	apparent KD of MS2 coat protein ([1]; input ligand: none) [nM]	apparent KD of MS2 coat protein [1, 3] [nM]	apparent KD of MS2 coat protein [1, 4] [nM]	apparent KD of MS2 coat protein [1, 5] [nM]	apparent KD of K4 kissing-loop reporter ([2]; input ligand: FMN 200 uM) [nM]	apparent KD of K4 kissing-loop reporter ([2]; input ligand: arginine 13.2 mM) [nM]	apparent KD of K4 kissing-loop reporter ([2]; input ligand: none) [nM]	apparent KD of K4 kissing-loop reporter [2, 3] [nM]	apparent KD of K4 kissing-loop reporter [2, 5] [nM]
AAAACUCAUGGCUUAUAUCCGUGUCUCGAAGGAGCGUACAGCGGUACAGGUAGGUCGCGAGACAUGAGGAUCACCCAUGUGUAAA [XArg-A 20 V1&2 original #dotplot2>1]	22.3	38.1	119	1.46	0.526	–	–	–	–	–
AAAAGAGGUGGAAGGAGCGGGAGACAUGAGGAUCACCCAUGUGAUGUUACGAAAGGUUCAGCCCAGGUAGGUCGCCAUGUCGAAA [zczzmullin]	36.6	46.8	268	175	34.7	–	–	–	–	–
AAAAUAAAAUAAAAGGUGGAAAUAAGGCGGCGAGGACCGGUACGGCCGCCACUCGCGUACAUGAGGAUCACCCAUGUCUGAAAAU [Same State - Tryptophan A (Freestyle 1)]	20.3	–	28.2	26.6	–	–	–	–	–	–
AAAAUAAAGGCGGCCGCCACUAGAGUUAGGCUUAUGUACUGGGUAACAUGAGGAUCACCCAUGUAUAGGACCGGGCCAUAAUAAA [Same State - Tryptophan B (Freestyle 2)]	28	57.3	82.1	73	66.5	–	–	–	–	–
AAAAUAAAUAAAACACGUAACAUGAAGGAUACCAGCCAGAAAACUGGCCCUUGGCAGCCUCUACAUGAGGAUCACCCAUGUCGUG [Mat - Same State Theophlline A - Mod of Eli - D16]	156	–	114	–	293	–	–	–	–	–
AAAAUAUACGGAAGGAGCGUGUAAGAUUAAGAACAUGAGGAUCACCCAUGUUUUAAGGGAACACAGGUAGGUCGCCGUAUAUAAA [11.N]	12.9	11.9	11.6	10.3	11.8	–	–	–	–	–
AAACAUGAGGAUCACCCAUGUAAAGUUGAAGGAGCGACCAGAGGGUCAGGUAGGUCGCAACACAUGAGGAUCACCCAUGUAUCGA [DOUBLE!!! :-D #5]	41.3	96.5	88.5	91.6	72.7	–	–	–	–	–
AAACAUGAGGAUCACCCAUGUAUACUUAGACGAGGACCGGUACGGCCGCCACUCGAACUUCAAGAUUUGGCGGAUAAUGUAUGUA [JR_Nu22_ExcTryptoA_Sub023]	9.74	10.9	16.1	11.9	11.9	–	–	–	–	–
AAACAUUGCUCAGAUACCAGACAUGAGGAUCACCCAUGUACCAAGGUAACCGAAAGGCAUGUCCCUUGGCAGCUGAGCAAUGAAA [MAT - Exclusion Theophlline B - Mod of Eli - D15]	13.5	–	17.4	–	13	–	–	–	–	–
AAACCAAGGGAUGGGUGCCUUGGUAGUGAUACCAGCCUGGAAACAGGCCCUUGGCAGCACAUGAGGAUCACCCAUGUGAAAUAAU [TheoAX 18#OpenEnded]	22.9	27.7	89.6	69.2	46.6	–	–	–	–	–
AAACGUUGCUGCGAUACCAGACAUGAGGAUCACCCAUGUACCAAGGUACGAAUAUAACAUGUCCCUUGGCAGCGCAGCAACGAAA [MAT - Exclusion Theophlline B - Mod of Eli - D7]	17.5	–	22.7	–	13.6	–	–	–	–	–
AAACUGAUCUUCAGGAGUCACUAUAUCUCCCGAGGACCGGUACGGCCGCCACUCGAACGUUUACAUGAGGAUCACCCAUGUGACU [theeternabot_exclusion_MS2_Trp_A_4]	13.6	–	16.4	14.9	–	–	–	–	–	–
AAAUAAAUAACUGAUACCAGUGUACUGACAUGAGGAUCACCCAUGUUGGGUUUUGUUGUACACCCUUGGCAGCAGAAAUAUAAAA [AstrosExyTheB#1]	28.7	–	41.2	–	37.9	–	–	–	–	–
AAAUAAAUACAUGAGGAUCACCCAUGUGAAGGAGCGCCCGUUAGGGCAGGUAGGUCGCACAUGAAAGGGAAGCGAAAGAAAUAAU [ArgEX 15 #OpenEnded]	26.8	20.2	24.5	16.5	20.3	–	–	–	–	–
AAAUAAAUACAUGAGGAUCACCCAUGUGAAGGAGCGCCCGUUAGGGCAGGUAGGUCGCACAUGAACUCCAAGCGAAAGAAAUAAU [ArgEX 16 #OpenEnded]	23.6	18.3	23.9	22.7	16.4	–	–	–	–	–
AAAUAAAUACAUGAGGAUCACCCAUGUGAAGGAGCGCCCGUUAGGGCAGGUAGGUCGCACAUGAAUAACUCCGCGCGAAAGCGCA [MAT - Exclusion Arginine A - Mod of Eli - D10]	41.8	38.7	37.1	52.6	35.8	–	–	–	–	–
AAAUAGGUAGGAGAUACCAGAUACGUUAACAUGAGGAUCACCCAUGUGUAUGCACUUAGUGUCCCUUGGCAGCUCGAGGAUCUGG [#18 Same State - Theophylline B]	23.3	–	37	–	27.4	–	–	–	–	–
AAAUUAUAGGCGGCCGCCACUAGAGUUAGGCUUAUGUACUGGGUAACAUGAGGAUCACCCAUGUAUAGGACCGGGCCAUAAUAAA [Same State - Tryptophan B (Freestyle 3)]	46.9	–	76.2	63.5	–	–	–	–	–	–

Sequence	apparent KD of MS2 coat protein ([1]; input ligand: arginine 13.2 mM) [nM]	apparent KD of MS2 coat protein ([1]; input ligand: none) [nM]	apparent KD of MS2 coat protein [1, 3] [nM]	apparent KD of MS2 coat protein [1, 4] [nM]	apparent KD of MS2 coat protein [1, 5] [nM]	apparent KD of K4 kissing-loop reporter ([2]; input ligand: FMN 200 uM) [nM]	apparent KD of K4 kissing-loop reporter ([2]; input ligand: arginine 13.2 mM) [nM]	apparent KD of K4 kissing-loop reporter ([2]; input ligand: none) [nM]	apparent KD of K4 kissing-loop reporter [2, 3] [nM]	apparent KD of K4 kissing-loop reporter [2, 5] [nM]
AACAACUAGUCGGCCGCCACUCAUAAUACAUGAGGAUCACCCAUGUAUACUUGGUUUUUAUAUUUGAGGACCGGGACAGUUGCAU [JR_Nu_ExcTryptoB_Sub026]	12.5	–	14.7	10.7	–	–	–	–	–	–
AACAUGAGGAUCACCCAUGUAAAAUGGGAUACCAGAGACGAAAGUCUCCCUUGGCAGCCCACUGCCUCCUUUACGAAAGUAGAGG [Theophylline A 15]	29.8	–	32.5	–	38.3	–	–	–	–	–
AACAUGAGGAUCACCCAUGUAUUGGGUGAUACCAGCCUGAAUAAUGGCCCUUGGCAGCACCACGCUAACUUUAUGUCUGCGAACC [Maus]	39.3	–	263	–	83.6	–	–	–	–	–
AACAUGAGGAUCACCCAUGUCGGGCCGGUGCGAGGACCGGUACGGCCGCCACUCGAGACAUGAGGAUCACCCAUGUUGUGCGUGA [Exclusion Tryptophan A GF23]	52.6	162	195	221	138	–	–	–	–	–
AACAUGAGGAUCACCCAUGUCUGAACUGAAGGAGCGCUAAAUAAGGCAGGUAGGUCGCGGAAUUUUGUGUAUAUAUAUAUAUGGG [9.G]	17.6	27.1	34.2	25	24.3	–	–	–	–	–
AACAUGAGGAUCACCCAUGUGUCCUCGAAACGAGGACCGGUACGGCCGCCACUCGAAAGGUGUUGACGAAAAGUCAGCACCAAAA [Mat - Exclusion - Trytophan A - D15]	122	–	351	412	–	–	–	–	–	–
AACAUGAGGAUCACCCAUGUGUCCUCGAAACGAGGACCGGUACGGCCGCCACUCGAAAUAAGCUGUUGACGAAAAGUCAGCAGCA [Mat - Exclusion - Trytophan A - D20]	128	–	300	345	–	–	–	–	–	–
AACAUGAGGAUCACCCAUGUGUCCUCGAAACGAGGACCGGUACGGCCGCCACUCGAAUAAGCUGUUGACGAAAAGUCAGCAGCAA [Mat - Exclusion - Trytophan A - D19]	91	–	327	314	–	–	–	–	–	–
AACAUGAGGAUCACCCAUGUUCUCGUGUACCGAGGACCGGUACGGCCGCCACUCGGUUCUCGCGAGGAUGGUCAAAGACUAUCCA [Omei Trp A SS B v5]	22.6	–	25.1	24.7	–	–	–	–	–	–
AACAUGAGGGCGGCCGCCACUCCAUGAACAUGAGGAUCACCCAUGUUGAGGAUCACCCAUGUUGUGAGGACCGGGCCACAUGAGG [Exclusion Tryptophan B 3]	31.7	38	66.1	59.8	89.6	–	–	–	–	–
AACGGUCGUACCGGAAUGAUCCUCAUGUAACGAGGACCGGUACGGCCGCCACUCGAUAACAUGAGGAUCACCCAUGUAAUAAUAA [|T'-M'-Trp-Ms2|_Design11]	18.8	–	17	17.2	–	–	–	–	–	–
AACGUGAACGUGGUAUACCCGUGUGCCGAAGGAGCGCCCGAAAGGGCAGGUAGGUCGCGGACGACAUGAGGAUCACCCAUGUUUG	42	73.5	97.2	87.5	57.7	–	–	–	–	–
AACUGGAAAAGUGAUACCAGAGACAUGAGGAUCACCCAUGUACAUGAGGAUCACCCAUGUCUCCCUUGGCAGCACAAAAGGGAGA [Exclusion Theophylline B Gf11]	16.1	–	37.6	–	24.5	–	–	–	–	–
AAGACGCCGGGAAGGAGCGCAUCCAAACCACACAUGAGGAUCACCCAUGUAUAAAUAUGCAUGCAGGUAGGUCGCCCGAUGUCCC [Orbemative]	32.4	31.6	48.8	42.6	36.5	–	–	–	–	–
AAGGUGAUCCCAGAUACCAGCUUAACAUGAGGAUCACCCAUGUUUGGGACGAAAGUCCCGGGCCCUUGGCAGCUGGGUUGCCAAG [SSTheo B #18]	61.9	–	402	–	174	–	–	–	–	–
UUUUACGAGUGAUGUUCGUAUUGUAAUAGUUAGGAUAUCGUUUUUUCGAGAAGGAACUUCGAAGUGAUACGAAAGUAUCGCUUCG [FMN A 10]	–	–	–	–	–	138	142	154	143	130
UUUUUAAUCGCAGAUACCAGUCCAGAAUAAAUACUAUAGUGAUGUUAUAUAUAAGGAAAGGACCCUUGGCAGCUGUACUAUAUUU [AstrosSsTheB#8]	–	–	–	–	–	411	322	392	245	346
UUUUUGGAGAAUUAUAGUGAUGUUAUGAAGGAGGAUAUCUGGAGAUGGAGAAGGCCUAGUGGCUCAGCCCUCGAGGGUGGGUGGG [ExFMNA.aC]	–	–	–	–	–	646	626	441	778	354
